The target in experiment [1] is T1, recombinant biotinylated monomeric Fc fusion of human Folate Receptor 2 (hu FolR2 ECD-AcTev-Fcknob-Avi tag … (human, UniProt P0DOX5 223-449 = IgG part, biotin on the C-terminal Avi tag)).
T1 construct: also called FolR2-Fc
The experiment is described as follows: SPR Biacore, single injection on immobilized antigen-Fc. As to the method: (§1) Binding of FolR1 binders as IgG or in the T-cell bispecific format to different recombinant folate receptors (human FolR1, 2 and 3, murine FolR1 and cynomolgus FolR1; all as Fc fusions) was assessed by surface plasmon resonance (SPR). All SPR experiments were performed on a Biacore T200 at 25° C. with HBS-EP as running buffer (0.01 M HEPES pH 7.4, 0.15 M NaCl, 3 mM EDTA, 0.005% Surfactant P20, Biacore, Freiburg/Germany).
(§2) First the anti-FolR1 IgGs were analyzed by single injections (Table 1) to characterize their crossreactivity (to human, murine and cyno FolR1) and specificity (to human FolR1, human FolR2, human FolR3). Recombinant biotinylated monomeric Fc fusions of human, cynomolgus and murine Folate Receptor 1 (FolR1-Fc) or human Folate Receptor 2 and 3 (FolR2-Fc, FolR3-Fc) were directly coupled on a SA chip using the standard coupling instruction (Biacore, Freiburg/Germany). The immobilization level was about 300-400 RU. The IgGs were injected for 60 seconds at a concentration of 500 nM.
On the technique in general: SPR reads the build-up and loss of mass on a sensor chip optically.

Experiment [2] deals with T2, recombinant biotinylated monomeric Fc fusion of human Folate Receptor 3 (hu FolR3 ECD-AcTev-Fcknob-Avi tag … (human, UniProt P0DOX5 223-449 = IgG part, biotin on the C-terminal Avi tag)).
T2 construct: also called FolR3-Fc
The description is as above. As to the method:
as §1, §2

Experiment [3] has as its target T3, recombinant biotinylated monomeric Fc fusion of cynomolgus Folate Receptor 1 (cy FolR1 ECD-AcTev-Fcknob-Avi … (cynomolgus, UniProt P0DOX5 223-449 = IgG part, biotin on the C-terminal Avi tag)).
T3 construct: also called cyFolR1-Fc; cyno FolR1
Description: SPR Biacore, avidity (bivalent, apparent KD), antigen-Fc on SA chip. As to the method: (§3) The avidity of the interaction between the anti-FolR1 IgGs or T cell bispecifics and the recombinant folate receptors was determined as described below (Table 41).
(§4) Recombinant biotinylated monomeric Fc fusions of human, cynomolgus and murine Folate Receptor 1 (FolR1-Fc) were directly coupled on a SA chip using the standard coupling instruction (Biacore, Freiburg/Germany). The immobilization level was about 300. […] The dissociation was monitored for 240 or 600 seconds. Bulk refractive index differences were corrected for by subtracting the response obtained on reference flow cell immobilized with recombinant biotinylated murine IL2 receptor Fc fusion. The binding curves resulting from the bivalent binding of the IgG or T cell bispecifics were approximated to a 1:1 Langmuir binding (even though it is a 1:2 binding) and fitted with that model to get an apparent KD representing the avidity of the bivalent binding. The apparent avidity constants for the interactions were derived from the rate constants of the fitting using the Bia Evaluation software (GE Healthcare). For low affinity kinetics with association and dissociation phases too fast to be fitted by the 1:1 Langmuir binding model, the steady state analysis model was applied using the Bia Evaluation software (GE Healthcare). The steady state analysis gives the KD of the binding reaction at equilibrium.

Experiment [4] addresses T4, recombinant biotinylated monomeric Fc fusion of human Folate Receptor 1 (huFolR1 ECD-AcTev-Fcknob-Avi tag … (human, UniProt P0DOX5 223-449 = IgG part, biotin on the C-terminal Avi tag)).
T4 construct: also called huFolR1-Fc; human FolR1-Fc
Described as above. As to the method:
as §3, §4

Experiment [5] addresses T4, recombinant biotinylated monomeric Fc …. The experiment is described as follows: SPR Biacore, affinity (monovalent), antibody captured via anti-Fab. As to the method: The affinity of the interaction between the anti-FolR1 IgGs or the T cell bispecifics and the recombinant folate receptors was determined as described below (Table 42).
For affinity measurement, direct coupling of around 10000 resonance units (RU) of the anti-human Fab specific antibody (Fab capture kit, GE Healthcare) was performed on a CM5 chip at pH 5.0 using the standard amine coupling kit (GE Healthcare). Anti-FolR1 IgGs or T cell bispecifics were captured at 200 nM with a flow rate of 10 ul/min for 40 sec, the reference flow cell was left without capture. Dilution series (12.35 to 3000 nM) of human Folate Receptor 1 Fc fusion were passed on all flow cells at 30 μl/min for 240 sec to record the association phase. The dissociation phase was monitored for 300 s and triggered by switching from the sample solution to HBS-EP. The chip surface was regenerated after every cycle using a double injection of 60 sec 10 mM Glycine-HCl pH 1.5. Bulk refractive index differences were corrected for by subtracting the response obtained on the reference flow cell 1. The affinity constants for the interactions were derived from the rate constants by fitting to a 1:1 Langmuir binding using the Bia Evaluation software (GE Healthcare).

Substitutions are numbered along the chain they refer to. In names and notes the source's numbering stands.

From patent US20220220224A1 (Hoffmann-La Roche, published 2022) come the findings set out here.

B1: 15H7 IgG (antibody, V domains shown)
VH: QVQLVQSGAEVKKPGASVKVSCKASGYTFTSYYMHWVRQAPGQGLEWMGIINPSGGSTSYAQKFQGRVTMTRDTSTSTVYMELSSLRSEDTAVYYCARNYYLFSTSFDYWGQGTLVTVSS
VL: QAVVTQEPSLTVSPGGTVTLTCGSSTGAVTTSNYANWVQEKPGQAFRGLIGGTNKRAPGTPARFSGSLLGGKAALTLSGAQPEDEAEYYCALWYSNLWVFGGGTKLTVL
notes: human IgG1
Regarding B1, the binding result in experiment [1] and in experiment [2] was “no binding (tested: 500 nM)” throughout.

B2: 18D3 IgG (antibody, V domains shown)
VH: QVQLVQSGAEVKKPGASVKVSCKASGYTFTSYYMHWVRQAPGQGLEWMGIINPSGGSTSYAQKFQGRVTMTRDTSTSTVYMELSSLRSEDTAVYYCARNYYTGGSSAFDYWGQGTLVTVS
VL: B1 VL
notes: human IgG1
For B2, the binding result in experiment [1] and in experiment [2] was “no binding (tested: 500 nM)” throughout.

B3: 16D5 IgG variant S35H/wt (HC/LC) (antibody, V domains shown)
VH: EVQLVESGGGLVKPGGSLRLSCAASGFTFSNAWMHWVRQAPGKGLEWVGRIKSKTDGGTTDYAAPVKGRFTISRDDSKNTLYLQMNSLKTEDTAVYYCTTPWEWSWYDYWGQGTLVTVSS
VL: B1 VL
notes: IgG
Take B3: the figures for the Kd in experiment [3], in experiment [4] and in experiment [5] were 55 nM, 40 nM and 1200 nM, respectively. The koff (as a rule, the first-order rate constant of dissociation) is 0.0124 s⁻¹ in experiment [3], 0.00568 s⁻¹ in experiment [4] and 0.0113 s⁻¹ in experiment [5]. Further, the kon – broadly, the second-order rate constant of association – in experiment [3] amounted to 223000 M⁻¹ s⁻¹; in experiment [4], 132000 M⁻¹ s⁻¹; in experiment [5], 8960 M⁻¹ s⁻¹.

B4: 16D5 IgG variant G49S/K53A (HC/LC) (antibody, V domains shown)
VH: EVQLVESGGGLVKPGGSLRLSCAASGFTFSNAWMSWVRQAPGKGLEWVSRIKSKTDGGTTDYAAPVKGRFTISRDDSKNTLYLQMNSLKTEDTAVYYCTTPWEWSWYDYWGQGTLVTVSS
VL: B1 VL with A2T, E40Q, F46P, K55A, A80V
notes: IgG
Consider B4, for which, in experiment [3], the Kd came to 80 nM, the koff was found to be 0.0328 s⁻¹ and the kon was 393000 M⁻¹ s⁻¹. Moreover, in experiment [4], the Kd stood at 60 nM, the koff was 0.0115 s⁻¹ and the kon stood at 190000 M⁻¹ s⁻¹. In experiment [5], the Kd came to 1900 nM, the koff came to 0.0174 s⁻¹ and the kon was determined as 9190 M⁻¹ s⁻¹.

B5: 16D5 IgG variant S35H/K53A (HC/LC) (antibody, V domains shown)
VH: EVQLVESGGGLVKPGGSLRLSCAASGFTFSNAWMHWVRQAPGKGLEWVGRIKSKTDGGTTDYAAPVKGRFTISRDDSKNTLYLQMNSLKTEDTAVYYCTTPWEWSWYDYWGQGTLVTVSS
VL: B1 VL with A2T, E40Q, F46P, K55A, A80V
notes: IgG
For B5, in experiment [3], the Kd was 1100 nM, the koff was determined as 0.0404 s⁻¹ and the kon turned out to be 34700 M⁻¹ s⁻¹. Further, in experiment [4], the Kd was found to be 1400 nM, the off-rate constant (koff) is 0.0291 s⁻¹ and the kon amounted to 21000 M⁻¹ s⁻¹.

B6: 16D5 IgG variant R50S/S93A (HC/LC) (antibody, V domains shown)
VH: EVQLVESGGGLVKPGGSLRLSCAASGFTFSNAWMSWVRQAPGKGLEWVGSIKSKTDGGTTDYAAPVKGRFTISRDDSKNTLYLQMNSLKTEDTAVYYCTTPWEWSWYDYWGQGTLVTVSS
VL: B1 VL with A2T, E40Q, F46P, A80V, S95A
notes: IgG
On to B6, for which, in experiment [3], the Kd was found to be 20 nM, the off-rate (koff) came to 0.0078 s⁻¹ and the kon was 439000 M⁻¹ s⁻¹. In addition, in experiment [4], the Kd was determined as 30 nM, the koff was 0.00323 s⁻¹ and the kon turned out to be 125000 M⁻¹ s⁻¹. Also, in experiment [5], the Kd was 780 nM, the koff amounted to 0.0123 s⁻¹ and the kon is 15700 M⁻¹ s⁻¹.

B7: 16D5 IgG variant W96Y/S93A (HC/LC) (antibody, V domains shown)
VH: not shown
VL: B1 VL with A2T, E40Q, F46P, A80V, S95A
notes: IgG
Turning to B7, in experiment [3], the Kd came to 30 nM, the koff was 0.0174 s⁻¹ and the kon was 625000 M⁻¹ s⁻¹. For the same molecule, in experiment [4], the Kd was 30 nM, the off-rate (koff) is 0.0189 s⁻¹ and the kon was determined as 655000 M⁻¹ s⁻¹. Moreover, in experiment [5], the Kd amounted to 420 nM, the koff turned out to be 0.0172 s⁻¹ and the kon came out at 40500 M⁻¹ s⁻¹.

B8: 16D5 IgG variant G49S/S93A (HC/LC) (antibody, V domains shown)
VH: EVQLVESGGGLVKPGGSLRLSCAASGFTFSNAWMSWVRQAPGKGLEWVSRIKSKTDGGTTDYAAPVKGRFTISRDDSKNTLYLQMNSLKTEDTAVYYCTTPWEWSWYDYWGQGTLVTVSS
VL: B1 VL with A2T, E40Q, F46P, A80V, S95A
notes: IgG
For the molecule B8, in experiment [3], the Kd stood at 20 nM, the dissociation rate constant (koff) was found to be 0.00622 s⁻¹ and the kon worked out at 358000 M⁻¹ s⁻¹. In experiment [4], the Kd turned out to be 20 nM, the koff came out at 0.00306 s⁻¹ and the kon is 152000 M⁻¹ s⁻¹. In experiment [5], the Kd is 760 nM, the koff came out at 0.00799 s⁻¹ and the kon is 10500 M⁻¹ s⁻¹.

B9: 16D5 IgG variant R50S/K53A (HC/LC) (antibody, V domains shown)
VH: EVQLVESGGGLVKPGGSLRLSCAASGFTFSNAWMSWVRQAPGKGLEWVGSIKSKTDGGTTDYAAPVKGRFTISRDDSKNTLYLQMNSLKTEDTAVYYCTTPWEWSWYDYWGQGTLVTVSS
VL: B1 VL with A2T, E40Q, F46P, K55A, A80V
notes: IgG
Take B9: the Kd was determined as 80 nM in experiment [3], 60 nM in experiment [4] and 1800 nM in experiment [5]. For the same molecule, the values for the koff in experiment [3], in experiment [4] and in experiment [5] were 0.0455 s⁻¹, 0.0197 s⁻¹ and 0.0245 s⁻¹, respectively. Besides, the figures for the kon in experiment [3], in experiment [4] and in experiment [5] were 550000 M⁻¹ s⁻¹, 328000 M⁻¹ s⁻¹ and 13500 M⁻¹ s⁻¹, respectively.

B10: 16A3 IgG (antibody, V domains shown)
VH: B1 VH with L102A, F103G, S104V, S106P
VL: B1 VL
notes: human IgG1
In the case of B10, the binding result in experiment [1] and in experiment [2] was “no binding (tested: 500 nM)” throughout.

B11: 21D1 IgG (antibody, V domains shown)
VH: B1 VH with L102V, F103G, S104V, T105S, S106P
VL: B1 VL
notes: human IgG1
As to B11, the binding result in experiment [1] and in experiment [2] was “no binding (tested: 500 nM)” in each case.

B12: 16D5 IgG variant S35H/S93A (HC/LC) (antibody, V domains shown)
VH: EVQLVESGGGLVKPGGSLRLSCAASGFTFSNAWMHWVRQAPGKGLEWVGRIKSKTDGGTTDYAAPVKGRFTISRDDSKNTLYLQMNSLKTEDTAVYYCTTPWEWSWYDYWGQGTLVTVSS
VL: B1 VL with A2T, E40Q, F46P, A80V, S95A
notes: IgG
For the molecule B12, the Kd came out at 110 nM in experiment [3], 90 nM in experiment [4] and 1300 nM in experiment [5]. The koff is 0.0677 s⁻¹ in experiment [3], 0.022 s⁻¹ in experiment [4] and 0.0112 s⁻¹ in experiment [5]. The on-rate constant (kon) was 612000 M⁻¹ s⁻¹ in experiment [3], 243000 M⁻¹ s⁻¹ in experiment [4] and 8430 M⁻¹ s⁻¹ in experiment [5].

B13: 16D5 IgG variant W96Y/wt (HC/LC) (antibody, V domains shown)
VH: not shown
VL: B1 VL
notes: IgG
For B13, in experiment [3], the Kd is 10 nM, the koff turned out to be 0.00211 s⁻¹ and the kon is 173000 M⁻¹ s⁻¹. Moreover, in experiment [4], the Kd stood at 20 nM, the dissociation rate constant (koff) stood at 0.00213 s⁻¹ and the association rate constant (kon) came out at 129000 M⁻¹ s⁻¹. In experiment [5], the Kd was determined as 550 nM, the koff was determined as 0.00544 s⁻¹ and the association rate constant (kon) came out at 9950 M⁻¹ s⁻¹.
